PMC3879356

Biological target: cytosolic domain of CAML (CAMLcyt), GST-tagged
Experiment: SPR; WRBcc or CAMLcyt immobilised on a HC1000m sensorchip (Reichert SR7000DC); analyte TRC40wt or TRC40wt/RAMP4 in PBS, 15°C, 40 µl/min, injected 270 s, dissociation 12 min; average of three independent measurements

TRC40/RAMP4 complex (MBP-TRC40/HZZ-RAMP4op protein complex), sequence (O43681 whole entry): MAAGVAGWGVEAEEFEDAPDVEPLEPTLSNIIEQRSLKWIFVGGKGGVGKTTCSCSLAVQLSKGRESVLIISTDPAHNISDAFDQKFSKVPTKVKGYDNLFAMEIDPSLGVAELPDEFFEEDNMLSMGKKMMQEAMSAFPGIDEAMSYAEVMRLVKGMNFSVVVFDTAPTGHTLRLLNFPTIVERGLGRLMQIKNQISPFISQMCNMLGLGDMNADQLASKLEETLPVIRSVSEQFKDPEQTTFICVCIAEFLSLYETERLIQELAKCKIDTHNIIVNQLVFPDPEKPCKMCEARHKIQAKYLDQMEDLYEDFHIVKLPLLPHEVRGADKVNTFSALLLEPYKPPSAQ
TRC40/RAMP4 complex (MBP-TRC40/HZZ-RAMP4op protein complex), sequence (Q9Y6X1 whole entry): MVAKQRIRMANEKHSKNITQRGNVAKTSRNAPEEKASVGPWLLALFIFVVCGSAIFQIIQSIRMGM

Kd: 34 nM
Substance: TRC40/RAMP4 complex (MBP-TRC40/HZZ-RAMP4op protein complex) (from UniProt O43681 1-348; Q9Y6X1 1-66)
